Results taken from paper PMC10480196, “Glycerol biosynthetic pathway plays an essential role in proliferation and antioxidative defense in the human enteric protozoan parasite Entamoeba histolytica” (Scientific Reports, 2023).

Key:
Assay type in all cases: biochemical, Entamoeba histolytica
purified protein [1] = substrate: O=P(O)(O)OC[C@H](O)CO; experiment: purified protein; conditions: reverse reaction, 1 mM ADP, 5 mM MgSO4, 1 mM EDTA, 50 mM Tris HCl pH 7.5
purified protein [2] = substrate: Nc1ncnc2c1ncn2[C@@H]1O[C@H](COP(=O)(O)OP(=O)(O)O)[C@@H](O)[C@H]1O; experiment: purified protein; conditions: reverse reaction, 40 mM G3P, 5 mM MgSO4, 1 mM EDTA, 50 mM Tris HCl pH 7.5
[3] = substrate: OCC(O)CO; experiment: coupled fluorescence assay (ADP hexokinase, G6P dehydrogenase, diaphorase; resazurin reduction); conditions: forward reaction, 2 mM ATP, 5 mM MgCl2, 50 mM Tris HCl pH 7.5, 37 °C, 10 mM N-ethylmaleimide
Excerpt: (§1) coupled fluorescence assay (ADP hexokinase, G6P dehydrogenase, diaphorase; resazurin reduction) on EhGK (rEhGK, recombinant E. histolytica glycerol kinase)

[4] = substrate: Nc1ncnc2c1ncn2[C@@H]1O[C@H](COP(=O)(O)OP(=O)(O)OP(=O)(O)O)[C@@H](O)[C@H]1O; experiment: as above; conditions: forward reaction, 2 mM glycerol, 5 mM MgCl2, 50 mM Tris HCl pH 7.5, 37 °C, 10 mM N-ethylmaleimide
Excerpt: as §1

B1: EhGK (rEhGK, recombinant E. histolytica glycerol kinase) (Entamoeba histolytica HM-1:IMSS) (protein)
chain: MKYILAIDQGTTSTRVILFDEKCQSIHTEQEEFDSIFPHPGWVEQDPEVIYTSVVNLMKKCLVNTGINKEDIAAIGITNQRETTVMWDKRTGKPIYNAIVWQSKQSGNETSYLMEKGYEEIFQSKTGLVLNPYFSASKIMWIFNNVEGAKALAEEGVLLFGTIDTWIIYNLTGGQSHSTDISNAARTLLFNIYEKKWDDELLAKTNIPKSILPIVKQSSDDFGIVSTIQEFNGIHITGVAGDQQASLFGHGSPIGGCKSTYGTGCFVVKNIGDTIKEIPKGLLATVGWEINGKITYALEGTVMTAGAALKWIRDIGILKDYNEISKIVTSKNGGVYFVPAFQGLGTPYWDDDVRGIIVGLTSGTGKGELVRATLESIALQCAQVIEIMGKINEIKVDGGVSRSDCMLQFQADICNCTVIRLKEKEITAMGAAMLAGLYVHLFKEDELDSMRVIEHVFKPQMSEEERKQIFSVWNKAVESARSFVH
Protein B1 has a Km (purified protein [1]) of 8.71 ± 2.46 mM, a Vmax (purified protein [1]) of 1.28 µmol/min/mg and a Km (purified protein [2]) of 0.14 ± 0.04 mM. It also gave a Vmax (purified protein [2]) of 1.2 µmol/min/mg, a Km [3] of 0.16 ± 0.03 mM and a Vmax [3] of 1.48 µmol/min/mg. It also gave a Km [4] of 0.23 ± 0.03 mM and a Vmax [4] of 1.3 µmol/min/mg.
